Measured values from PMC7402097, “Reduction of Protein Bound Methionine Sulfoxide by a Periplasmic Dimethyl Sulfoxide Reductase” (Antioxidants, 2020).

Key:
purified protein [1] = substrate: C[S+](C)[O-]; experiment: purified protein; conditions: Britton-Robinson buffer pH 6.0, 46 nM DorA, electron donor dithionite-reduced benzyl viologen
purified protein [2] = substrate: C[S+]([O-])CC[C@H](N)C(=O)O; experiment: purified protein; type: biochemical, Cereibacter sphaeroides; conditions: Britton-Robinson buffer pH 6.0, 46 nM DorA, electron donor dithionite-reduced benzyl viologen, R,S diastereomer mixture used, KM already divided by 2 to count only the S-diastereomer

B1: DorA DMSO reductase (Cereibacter sphaeroides) (protein)
chain: EGLANGEVMSGCHWGVFKARVENGRAVAFEPWDKDPAPSHQLPGVLDSIYSPTRIKYPMVRREFLEKGVNADRSTRGNGDFVRVTWDEALDLVARELKRVQESYGPTGTFGGSYGWKSPGRLHNCQVLMRRALNLAGGFVNSSGDYSTAAAQIIMPHVMGTLEVYEQQTAWPVVVENTDLMVFWAADPMKTNEIGWVIPDHGAYAGMKALKEKGTRVICINPVRTETADYFGADVVSPRPQTDVALMLGMAHTLYSEDLHDKDFLENCTTGFDLFAAYLTGESDGTPKTAEWAAEICGLPAEQIRELARSFVAGRTMLAAGWSIQRMHHGEQAHWMLVTLASMIGQIGLPGGGFGLSYHYSNGGSPTSDGPALGGISDGGKAVEGAAWLSESGATSIPCARVVDMLLNPGGEFQFNGATATYPDVKLAYWAGGNPFAHHQDRNRMLKAWEKLETFIVQDFQWTATARHADIVLPATTSYERNDIESVGDYSNRAILAMKKVVDPLYEARSDYDIFAALAERLGKGAEFTEGRDEMGWISSFYEAAVKQAEFKNVAMPSFEDFWSEGIVEFPITEGANFVRYADFREDPLFNPLGTPSGLIEIYSKNIEKMGYDDCPAHPTWMEPAERLGGAGAKYPLHVVASHPKSRLHSQLNGTSLRDLYAVAGHEPCLINPADAAARGIADGDVLRVFNDRGQILVGAKVSDAVMPGAIQIYEGGWYDPLDPSEEGTLDKYGDVNVLSLDVGTSKLAQGNCGQTILADVEKYAGAPVTVTVFDTPKGA
notes: full-length dorA with C-terminal 6-His tag (kept), pIND4-DorA-His; expressed in R. sphaeroides f. sp. denitrificans IL106 dorA- (host) and purified from periplasm; monomeric
Km (purified protein [1]): 1.8 ± 0.4 µM | kcat (purified protein [1]): 3.9 s⁻¹ | kcat/Km (purified protein [1]): 2.2e+06 M⁻¹ s⁻¹ | Km (purified protein [2]): 68.8 ± 5.7 µM | kcat (purified protein [2]): 4.2 ± 0.1 s⁻¹ | kcat/Km (purified protein [2]): 61000 M⁻¹ s⁻¹
